The source of these data is patent US20200024598A1, “ISOLATED POLY[…] REGION, HOST CELL COMPRISING THE SAME, AND METHOD OF […] GENE IN THE HOST CELL” (priority 2018, published 2020).

What all share (type): cell-based, Pseudomonas saitens KCTC 13107BP
One data set has as its system P4381-cm^R SF1 strain. Briefly: MIC test of chloramphenicol on recombinant SF1 strain (P4381 promoter). The procedure:
(§1) A pB-P4381 vector comprising cm^R gene (cat) downstream of the promoter of highly expressed gene Gene_4381, which was selected based on RNA-seq data, was constructed as described in (2). This vector was then introduced into SF1 strain by electroporation. As control groups, a pSF-EX1 vector and a pBBR-122 vector were introduced into separate SF1 strains in the same manner as described above.
(§2) Each of the recombinant SF1 strains was cultured in separate wells of a microplate containing LB medium containing predetermined chloramphenicol, and growth thereof was examined to confirm minimal inhibitory concentrations (MICs). Culturing was performed at 30° C. for 2 days in an LB medium supplemented with 400 μg/ml of chloramphenicol by ½ dilution at each concentration.

The subject of a further data set is Ptac-cm^R SF1 strain. The data set can be described thus: MIC test of chloramphenicol on recombinant SF1 strain (Ptac promoter). Conditions: Pseudomonas, 48 h, read-out: MIC of Chloramphenicol. The procedure: as §1, §2
A further data set concerns Pcat-cm^R SF1 strain. Briefly: MIC test of chloramphenicol on recombinant SF1 strain (Pcat promoter). Conditions: Pseudomonas, 48 h, LB medium, 30° C., 2 days. The procedure:
as §1, §2

In a further data set the test system is cat protein. The data set can be described thus: SDS-PAGE analysis of cat protein expression in cell lysates. To be noted: SDS-PAGE of soluble proteins, SF1 strain. An excerpt:
Pcat-cm^R, Ptac-cm^R, and P4381-cm^R cells cultured in (3.1) were lysed to obtain cell lysates, from which soluble proteins were isolated using a BuGBusTER® Protein Extraction Reagent, respectively. The isolated proteins were subjected to SDS-PAGE to examine cat expression.
In FIG. 5, the arrow indicates the position of cat protein.

For the next data set, the system named is cat gene. Briefly: cat mRNA level by RT-PCR. Conditions: SF1 strain. The source says:
Pcat-cm^R, Ptac-cm^R, and P4381-cm^R cells cultured in (3.1) were lysed to obtain cell lysates, which were then centrifuged to obtain supernatants, respectively. Each supernatant was subjected to RT-PCR using a set of primers of SEQ ID NOS: 13 and 14.
In FIG. 4, the vertical axis represents a ratio when a cycle threshold (CT) value of Pcat promoter is regarded as 1, and Pcat, Ptac, and P4381 on the horizontal axis represent SF1 strains introduced with […], respectively.

On to `O=C(N[C@H](CO)[C@H](O)c1ccc([N+](=O)[O-])cc1)C(Cl)Cl` [Chloramphenicol, chloramphenicol], for which the MIC (commonly the lowest concentration found to suppress growth) in the data set on P4381-cm^R SF1 strain (Pseudomonas, 48 h, strain P4381-cm^R, LB medium, 30° C., 2 days) was > 200 µg/mL; with Ptac-cm^R SF1 strain, > 100 µg/mL; in the data set with Pcat-cm^R SF1 strain, > 100 µg/mL.

B1: P4381: promoter polynucleotide comprising SEQ ID NO: 1 isolated from Gene_4381 of Pseudomonas saitens KCTC 13107BP (nucleic acid)
DNA: TAGACCTGACTGCAGAGCGAATTCGGGCCTGATTCAGGGCAAAAATGGCCAGAAACCATTTTTCGCGTAAAAAATATTCATTCGCGAGTGCTTTTTTTCCAAGCCCGTTTAACCCTCAAGCCCCGGAAACCGGGGCTTCGAGCATTTCAGGCAGCAGACCGAAGCTAACATCGCAGCAAACTGTGGTTCAGGGGGGTTCCAAAGCGCACATTTCGACTATGATAGCTCGGTGTGCCCAGTTGGCCTGAGCAGCACAGTACTACTGAAAATATAAGTTTCTTGGAGATACACC
modifications: Synthetic Pseudomonas saitens KCTC 13107BP
Turning to B1, the “MIC relative to that of existing Pcat and Ptac” value with P4381-cm^R SF1 strain (chloramphenicol MIC, SF1 strain) is “twice or higher”. Further, the “cat protein expression level compared with Pcat and Ptac” value in the data set on cat protein was “significantly higher”. Further, in the data set on cat gene (compared with Pcat promoter), the “cat mRNA level relative to Pcat” value stood at 158 times. For the same molecule, in the data set with cat gene (compared with Ptac promoter), the “cat mRNA level relative to Ptac” value was 32 times.
